Here are results for 40 sequences from the nanobody polyreactivity screen of Harvey et al. (2022).

A short description of the data set: yeast display, Sf9 membrane polyspecificity reagent, FACS + sequencing; frameworks hold sequencing errors. In short, it runs like this:
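A nanobody's polyreactivity label depends on the gate it was sorted from. Yeast display cells were stained with 10% biotinylated, detergent-solubilized Sf9 membrane reagent for 1 hour at 4 °C, enriched on streptavidin microbeads and sorted by FACS. The low and high (top ~1%) gates were set on anti-HA fluorescence for expression and streptavidin fluorescence for reagent binding.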
In the case of “QVQLVESGGGLVQAGGSLRLSCAASGIIFKYYVMGWYRQAPGKERELVASIRWSGGITSYADSVKGRFTISRDNAKNTVYLQMNSLKPEDTAVYYCAVAHSRLRTAYTFSVQRYDYWGQGTQVTVSS”, the “polyreactivity (PSR sort gate)” value is on record as “low polyreactivity”.

As for “QVQLVESGGGLVQAGGSLRISCAASGNIIRKYAMGWYRQAPGKEREFVAAISSSGGRTYYADSVKGRFTISRDNAKNTVYLQMNSLKPEDTAGYYCARPYSYAYVLGDYWGQGTQVTVSS”, the “polyreactivity (PSR sort gate)” value is “high polyreactivity”.

Consider “QVHLVQSGGGLVQAGGSLRISSAASGSTFSPYDMGRYRQAPGKEREMVAGITDGAITTYADSVKGSFTISRDNANNTVYLQMNSLKPEDTEVYYCAAFLWAKYHPGYYYWGQGTQETVSS”, for which the “polyreactivity (PSR sort gate)” value is “low polyreactivity”. Regarding “QVQLVESGGGLVQAGGSLRLSCAASGSTFYYNAMGWYRQAPGKERELVAAITFTGGSTYADSVKGRFTISRDNAKNTVYLQLNSLKPEDTAVYYCAATIQGHDYLGTGYDYWGQGTQVTVSS”, the “polyreactivity (PSR sort gate)” value is recorded as “low polyreactivity”. As for “QVQLVESGGGLVQAGGSLRLSCAASGRIFPINVMGWYRQAPGKERELVAAISGRGGSTYYADSVKGRFTISRDNAKNTVYLQMNSLKPEDTAVYYCNAVRVSIPYIYTMDYWGQGTQVTVSS”, the “polyreactivity (PSR sort gate)” value was “high polyreactivity”. For the sequence “QVQLVESGGGLVQAGGSLRLSCAASGRIFRANTMGWYRQAPGKERELVATSSKNGGRTYYADSVKGRFTISRDNAKNTVYLQMNSLKPEDTAVYYCNAEWRGWRFLEYGSYIYQSGYWGQGTQVTVSS”, the “polyreactivity (PSR sort gate)” value is “high polyreactivity”. As for “QVQLVESGGGLVQAGGSLRLSCAASGRIFFRYAMGWYRQAPGKERELVAAISYSGGSTYYADSVKGRFTISRDNAKNTVYLQMNSLKPDDTAVYYCATGPVYEYDYWGQGTQVTVSS”, the “polyreactivity (PSR sort gate)” value is reported as “low polyreactivity”. As for “QVQLVESGGGLVQAGGSLRLSCAASGRTFHRYVMGWYRQAPGKERELVAAITRSGGITYYADSVKGRFTISRDNAKNTVYLQMNSLKPEDNAVYYCAKDDLTASGFDYWGQGTQVTVSS”, the “polyreactivity (PSR sort gate)” value is “low polyreactivity”. Take “QVQLVESGRGLVQAGGSLRLSCAASGSIFTHYAMVWYRQAPGKERELVATISNGDGSTYYADSVKGRFTISRDNAKNTVYLQMNSLKPEDTAVYYCNVDDFSQYADDSWGYEYWGQGTQVTVSS”: the “polyreactivity (PSR sort gate)” value is given as “low polyreactivity”. On to “QVQLVESGGGLVQSGGSLRLICAASGRNYAMGWYRQAPGKERELVARITKSGTSTYYADSVKGRFTISRDNAKNTVYLQMNSLKPEDTAVYYCNARYWGYWGDHYDYWGQGTQVTVSS”, for which the “polyreactivity (PSR sort gate)” value is given as “high polyreactivity”.

On to “QVQLVESGGGLDQAGGSLRLSCAASGYTFLIYAMGWYRQAPGKERELVAAISYRDGRTYYADSVKGRFTISRDNAKNTVYLQMNSLNPEDTAVYYCAATLFYQPYRSYYYWGQGTQVTVSS”, for which the “polyreactivity (PSR sort gate)” value is listed as “high polyreactivity”.

With “QVQLVESGGGLVQAGGSHRLSCAASGSIFLFNAMGWYRQAPGKERELVAAITSPTARTYYADSVKGRFTISRDIAKNTVYLQMNSLKPEDTAVYYCAARYRYAYGYGRGYSWGQGTQVTVSS”, the “polyreactivity (PSR sort gate)” value is “high polyreactivity”. As for “QVQLVESGGGLVQAGGSLRLSCAASGFIFSRNAMGWYRQAPGKERELVAAISSTGGITYYADSVKGRFTISRDNAKITVYLQMNSLKPEDTAVYYCAAGFYGYARHSWYKYWGQGTQVTVSS”, the “polyreactivity (PSR sort gate)” value is on record as “high polyreactivity”. In the case of “QVQLVESGGGLVQAGGSLRLSCAASGGTFYRYAMGWYRQAPGIERELVAAISGGRGRTYYADSVKGRFTISRDNAKNTVYLQMNSLKPVDTAVYYCSNKPYGAVSGSDYDYWGQGTQVTVSS”, the “polyreactivity (PSR sort gate)” value is “high polyreactivity”.

“QVRLVESCGGLVQAGGSLRLSCAASGITFQYNAMGWYRQAPGKERELVATIRRGGITKYADSVKGRFTISRDNAKNTVYLQMNSLKPEDTAVYYCNADWVWRYSSDFDYWGQGTQVTVSS”: the “polyreactivity (PSR sort gate)” value was “low polyreactivity”. Consider “QVQLVESGGGLVQAGGSLRLSCAASGFTFYAYAMGWYRQAPGKERELVAAISKRGGITYYADSVKGRFTISRDNAKNTVYLQMNSLKPEDTAVYYCNADRRRRSGGFAGWHFQRNDYWGQGTLVTVSS”, for which the “polyreactivity (PSR sort gate)” value is “low polyreactivity”.

“QVQLVESGGGLVQAGGSLRLSCAASGRIFSTYTMGWYRQAPGKERELVASISWSGVRTRYADSVKGRFTISRDNAQNTVYLQMNSLKPEDTAVYYCAAVVPYYYRSPSNHMGYWGQGTQVTVSS”: the “polyreactivity (PSR sort gate)” value was “high polyreactivity”. Take “QVQLVESGGGLVQAGGSLRLSCAASGSIFYYAMGWYRQAPGKERELVATITRRGGRTHYADSVKGRFTLSRDNAKNTVYLQMNSLKPEDTAVYYCAADSYSYRYYYWGQGTQVTVSS”: the “polyreactivity (PSR sort gate)” value is given as “high polyreactivity”. On to “QVQLVESGGGLVQAGGSLRLSCAASGRTFGLYAMGWYRQAPGKERELVATITTSDIITYYADSVKGRFTISRDNAKNSVYLQMNSLKPEDTAVYYCASGGYDDFSSRPANDYWGQGTQVTVSS”, for which the “polyreactivity (PSR sort gate)” value was “low polyreactivity”.

In the case of “QVQLVETGGGLVQAGGSLRLSCAASGFTILGYDMGWYRQAHGKERELVAAFDYSGGSTYYADSVKGRFTISRDNAQNTVYLQMNSLKPEDTAVYYCAAYTGKGRAYFRWMDYWGQGTQVTVSS”, the “polyreactivity (PSR sort gate)” value is given as “high polyreactivity”. For the sequence “QVQLVESGGGLVQAGGSLRLSCAATGSTIPYYAMGWYRQAPGKERELVARITSGDRTYYADSVKGRFTISRDNAKNTVYLQMNSLKPEDTADYYCNAQVHYYSWYGYWGQGTQVTVSS”, the “polyreactivity (PSR sort gate)” value is on record as “high polyreactivity”. Turning to “QVQLVESGGGLVQAGGSLRLSCAASGRTFATNTMGWSRQAPGKERELVAAITFSGGSTYYADSVKGRFTISRDNAKNTVYLQMNSLKPEDTAVYYCNVRSPYYSYRYRYGYWGQGTQVTVSS”, the “polyreactivity (PSR sort gate)” value is on record as “high polyreactivity”. “QVQLVETGGGLVQAGGSLRLSCAASGSTFHGYAMGWYRQEPGKERELVAAITSGDSTNYADSVKGRFTISRDNAKNTVYLQMNSLKPEDTAVYYCNAEGSSVLTGYWGYPPYWDTYDYWGQGTQVTVSS”: the “polyreactivity (PSR sort gate)” value is “low polyreactivity”. With “QVQLVESGGGLVQAGGSLRLSCAASGFTFSYYARGWYRQAPGKARELVATISSGGITNYADSVKGRFTISRDNAKNTDYLQMNSLKPEDTAVYYCAAEPSWWNVFYPGYNYWGQGTQVTVSS”, the “polyreactivity (PSR sort gate)” value is recorded as “high polyreactivity”. “QVQLVESGGGLVQAGGSLRLSCAASGSIFSAYAMGWYIQAPGKERELVAGITGSGGRTYYADSVKGRFTISRDNAKNTVYLQMNSLKPEDTAVYYCLARSYYNWYDYWGQGTQVTVSS”: the “polyreactivity (PSR sort gate)” value is listed as “high polyreactivity”. As for “QVQLVESGGGLVQAGGSLRLSCAATRYTFSHYAMGCYRQAPGKERELVAAMSGSGGNTYYADSVKGRFTISRDHAKNTVYLQMNSLKPEDTAVYYCNADNEYRLGYWDDSWVQGTQVTVSS”, the “polyreactivity (PSR sort gate)” value is listed as “low polyreactivity”. The same measure for “QVQRVESGGCLVQAGGSLRLSCAASGRTFSYYTMGWYRQAPGKEREFVATINTSGGSTYYADSVKGRFTISRDNAKNTVYLQMNSLKPEDTAVYYCAADVYSFLSISYQWYRMDYWGQGTQVTVSS”: “low polyreactivity”.

“HVQLLESGGGLLQAGGSLRLSCMASGSILRDRMSWYLQAPGKEHELVATIYDGGITYYADSMKGRFTISRDNAKNTVYLQMNSLRPEDTAVYYCGASFEGYRYHVYCGQGTQVTVSS”: the “polyreactivity (PSR sort gate)” value is “low polyreactivity”. For “QVQLVESVGGLVLAGGSLRLSCAASGSIFIVNAMGWYRQAPGKERELVAAISGRGGNTNYADSVKGRFTISRDNAKNTVYLQMNSLKPEDTAVYYCAARHTRDYDYWGQGTQVTVSS”, the “polyreactivity (PSR sort gate)” value is on record as “low polyreactivity”. For “QVQLVESGGGLVQAGGSLRLSCAASGFTFARYAMGWYRQAPGKERELVAAISWTGARTYYADSVKGRFTISRDNAKNTVYLQMNSLKPEDTAVYYCNAVSGSSNFDYWGQGTQVTVSS”, the “polyreactivity (PSR sort gate)” value is reported as “high polyreactivity”. For “QVQLVESGGGLVQAGGSLRLSCAASGRTFGGYAMGSYRQAPGKERELVAAISRSGGRTYYADSVKGRFTISRDNAKNTVYLQMNSLKPEDSAVYYWADRLYVGPTAMDYWGEGTQVTVSS”, the “polyreactivity (PSR sort gate)” value was “high polyreactivity”. As for “QVQLVESGGGLVQAGGSLRLSCAASGFIFGNYVLGWSRQAPGKERELVAAISESGSRTYYADSVKGRFTISRDYAKKTVYLQMNSLKPEDTAVYYCAAALFSYYGEYDYWGQGTQVTVSS”, the “polyreactivity (PSR sort gate)” value was “low polyreactivity”.

Consider “QVQLVESGGGLVQAGGSLRLSCAASGFTFSTYTMGWYRQAPGKERELVARITWSGTRTYYADSVKGRFTISRDNAKNTVYLQMNSLKPEDTAVYYCNAGPYARYYWGQGTQVTVSS”, for which the “polyreactivity (PSR sort gate)” value was “high polyreactivity”. On to “QVQLVESGGGLVQAGGSLRLSCAASGRIISYYAMRWYRQAPGKERELVAAITSAGGTNYADSVKARFTISRDNAKNTVYLQMNSLKPEDTAVYYCAADLYDWPLAWWEYFYWGQGTQVTVSS”, for which the “polyreactivity (PSR sort gate)” value is listed as “low polyreactivity”. With “QVQLVESGGGLVQAGGSLRLSCAASGRIFTTYAMGWYRQEPGKERELVAAISQNGGSTYYADSVKGRFTISRDNAKNTVYLQMNTLKPEDTAVYYCAAADYYGIRDLYASDGTHYYSWGQGTQVTVSS”, the “polyreactivity (PSR sort gate)” value is reported as “low polyreactivity”. The same measure for “QVQLVESGGGLVQAGGSLRLSCAASGRTFYYYAMGWYRQAPGKEREFVASITWRGGRTYYADSVKGRFTISRDNAKNTVYLQMNSLKPEDTAVYYCAADGSYAIGGYGYWGQGTQVTVSS”: “high polyreactivity”; for “QVLLVESGGGLVQAGGSLRLSCAASGRTFVTNAMGWYTQAPGKERELVAGITRRGGSTYYADSVKGRFTISRDNAKNTVYLQMNSLKPEDTAVYYCARRGDTSTRYYYWGQGTQVTVSS”: “high polyreactivity”.

On to “QVQLVESGGGLVQAGGSLRLSCAASGSIFLSNAMGWYRQSPGKERELVAAISSSGGSTYYADSVKGRFTISRDNAKNTVYLQMNSLKPEDTAVYYCAATGYGFRGRFDYWGQGTQVTVSS”, for which the “polyreactivity (PSR sort gate)” value is reported as “low polyreactivity”.

For the sequence “QVQLVESGGGLVQAGGSLRLSCDASGIIIRWYAMGWYRQAPGKERELVAAITSSGGRTYYADSVKGRFTISRDNAKNTVYLQMNSLKPEDTAVYYCAAQRYSHLYRGRFAYRYYYWGQGTQVTVSS”, the “polyreactivity (PSR sort gate)” value was “high polyreactivity”.

“QVQLVESGGGLVQAGGSLRLSCDASGFTFARYNMGWYRQAPGKERELVAAISSRGSSTYYADSVKGRFTISRDNAKNTVYLQMNSLKAEDTAVYYCAAPPRYGYDYWGQGTQVTVSS”: the “polyreactivity (PSR sort gate)” value was “high polyreactivity”.
